From PMC7994789, “Glycosyltransferase POMGNT1 deficiency strengthens N-cadherin-mediated cell–cell adhesion” (The Journal of Biological Chemistry, 2021)

B1: recombinant extracellular domain (EC) of N-cadherin (EC-N-Cdh) purified from ΔPOMGnT1 HEK293T cells (domain or fragment, mouse, UniProt P15116 160-724, looked up)
chain: DWVIPPINLPENSRGPFPQELVRIRSDRDKNLSLRYSVTGPGADQPPTGIFIINPISGQLSVTKPLDRELIARFHLRAHAVDINGNQVENPIDIVINVIDMNDNRPEFLHQVWNGSVPEGSKPGTYVMTVTAIDADDPNALNGMLRYRILSQAPSTPSPNMFTINNETGDIITVAAGLDREKVQQYTLIIQATDMEGNPTYGLSNTATAVITVTDVNDNPPEFTAMTFYGEVPENRVDVIVANLTVTDKDQPHTPAWNAAYRISGGDPTGRFAILTDPNSNDGLVTVVKPIDFETNRMFVLTVAAENQVPLAKGIQHPPQSTATVSVTVIDVNENPYFAPNPKIIRQEEGLHAGTMLTTLTAQDPDRYMQQNIRYTKLSDPANWLKIDPVNGQITTIAVLDRESPNVKNNIYNATFLASDNGIPPMSGTGTLQIYLLDINDNAPQVLPQEAETCETPEPNSINITALDYDIDPNAGPFAFDLPLSPVTIKRNWTINRLNGDFAQLNLKIKFLEAGIYEVPIIITDSGNPPKSNISILRVKVCQCDSNGDCTDVDRIVGAGLGTGA
modifications: N-glycans at Asn273, 325, 402, 572, 622, 651, 692: nongalactosylated complex-type N-glycans with a bisecting GlcNAc dominate at all sites except Asn651 and Asn692; galactosylation (-27% on average) and sialylation (-16% on average) decreased against the WT-derived protein; O-mannosylation as in the WT-derived protein
notes: N-cadherin (neural cadherin), mouse, extracellular domain (EC1-EC5) amplified from mouse cDNA; same construct as m1, other host cells; Same polypeptide as m1; It differs only in the N-glycans, because it was made in POMGNT1 knockout cells; See the note of m1 for the limits read from the primers; also called ΔPOMGnT1-derived N-Cdh; N-Cdh from ΔPOMGnT1 cells; source: ΔPOMGnT1 (POMGNT1 knockout) …
B2: recombinant extracellular domain (EC) of N-cadherin (EC-N-Cdh) purified from WT HEK293T cells (domain or fragment, mouse, UniProt P15116 160-724, looked up)
chain: B1 chain
modifications: N-glycans at Asn190 (scarcely), 273, 325, 402, 572, 622, 651, 692 (complex-type, Asn651 high-mannose-type); nonelongated O-linked mannose at 15 sites (Table S6)
notes: N-cadherin (neural cadherin), mouse, extracellular domain (EC1-EC5) amplified from mouse cDNA; Cloned AscI/XhoI into pSecTag2 (Invitrogen); also called WT-derived N-Cdh; N-Cdh extracellular domain; source: HEK293T (WT), stably transfected with pMLHD7, secreted into serum-free medium, purified (HisTrap); not shown: His8, C-terminal, kept

Target: the molecule itself
Experiment: bead aggregation assay; EC-N-Cdh coated on Dynabeads (40 μg protein per 40 μl beads, o/n 4 °C); binding buffer 50 mM Tris-HCl pH 7.2, 100 mM NaCl, 10 mM KCl, 0.2% BSA; 2 mM CaCl2 (2 mM EDTA as control); room temperature; aggregate size imaged over 1 h

Protein	binding result
B1	binds
B2	binds
